For data set [1], the target named is T1, Dmr1-His6 (Saccharomyces cerevisiae, UniProt P48237 27-864).
T1 sequence: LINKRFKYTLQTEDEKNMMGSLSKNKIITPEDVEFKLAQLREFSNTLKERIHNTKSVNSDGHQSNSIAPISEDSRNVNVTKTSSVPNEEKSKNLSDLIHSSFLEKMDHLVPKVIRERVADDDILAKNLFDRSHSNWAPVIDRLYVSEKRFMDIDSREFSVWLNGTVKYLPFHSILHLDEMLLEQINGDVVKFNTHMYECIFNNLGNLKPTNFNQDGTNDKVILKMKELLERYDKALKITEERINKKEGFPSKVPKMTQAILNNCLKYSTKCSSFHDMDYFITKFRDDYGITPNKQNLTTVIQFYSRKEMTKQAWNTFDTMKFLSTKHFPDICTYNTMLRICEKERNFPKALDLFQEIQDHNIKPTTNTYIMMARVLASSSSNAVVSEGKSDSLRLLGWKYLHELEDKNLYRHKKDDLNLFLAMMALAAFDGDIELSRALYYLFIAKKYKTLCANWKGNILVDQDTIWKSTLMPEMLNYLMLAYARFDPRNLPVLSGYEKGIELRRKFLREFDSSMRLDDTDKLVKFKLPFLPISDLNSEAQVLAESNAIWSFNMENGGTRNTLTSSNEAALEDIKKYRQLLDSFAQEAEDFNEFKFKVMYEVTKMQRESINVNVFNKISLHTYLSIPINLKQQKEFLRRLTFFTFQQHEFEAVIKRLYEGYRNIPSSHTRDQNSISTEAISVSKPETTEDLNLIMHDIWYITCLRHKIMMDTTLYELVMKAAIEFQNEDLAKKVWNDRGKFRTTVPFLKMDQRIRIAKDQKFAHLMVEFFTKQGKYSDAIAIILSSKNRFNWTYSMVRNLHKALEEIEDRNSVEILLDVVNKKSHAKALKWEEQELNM
The data set can be described thus: nuclease protection; PNPase, 2 mM MgCl2; complete protection, from 0.1 ug protein; EMSA as in Puchta et al. 2010 (buffer not restated), 15 uL, up to 0.8 ug Dmr1p, BSA to constant protein, 0.2 ug tRNA; PNPase protection: 20 mM Tris-HCl pH 8.0. Conditions: protein: recombinant; tags: His6 (pET28a); label: 32P-UTP.

The target of data set [2] is T2, Dmr1p (Ccm1p), tag removed (Saccharomyces cerevisiae, UniProt P48237 27-864).
T2 sequence: T1 sequence
Briefly: EMSA; 0.2 ug tRNA; strong; EMSA as in Puchta et al. 2010 (buffer not restated), 15 uL, up to 0.8 ug Dmr1p, BSA to constant protein, 0.2 ug tRNA; PNPase protection: 20 mM Tris-HCl pH 8.0. The conditions noted are these: protein: recombinant; tags: none after TEV cleavage (from Dmr1-MBP-His6); label: 32P-UTP. A general note: Mobility shift assays separate free from complexed probe on a gel.

In data set [3] the target is T2, Dmr1p (Ccm1p), tag removed. The data set can be described thus: EMSA; 0.2 ug tRNA; EMSA as in Puchta et al. 2010 (buffer not restated), 15 uL, up to 0.8 ug Dmr1p, BSA to constant protein, 0.2 ug tRNA; PNPase protection: 20 mM Tris-HCl pH 8.0. Conditions: protein: recombinant; tags: none after TEV cleavage (from Dmr1-MBP-His6); label: 32P-UTP.
For data set [4], the target named is T1, Dmr1-His6. The data set can be described thus: footprinting; Dis3p 3'-5' exoribonuclease, 2 mM MgCl2; stop 3-5 nt downstream of (AUA)4AU; EMSA as in Puchta et al. 2010 (buffer not restated), 15 uL, up to 0.8 ug Dmr1p, BSA to constant protein, 0.2 ug tRNA; PNPase protection: 20 mM Tris-HCl pH 8.0. The conditions noted are these: protein: recombinant; tags: His6 (pET28a); label: 32P-UTP.

Data set [5] concerns the target T1, Dmr1-His6. Briefly: nuclease protection; PNPase, 2 mM MgCl2; not protected; EMSA as in Puchta et al. 2010 (buffer not restated), 15 uL, up to 0.8 ug Dmr1p, BSA to constant protein, 0.2 ug tRNA; PNPase protection: 20 mM Tris-HCl pH 8.0. The conditions noted are these: protein: recombinant; tags: His6 (pET28a); label: 32P-UTP.
Data set [6] deals with T1, Dmr1-His6. The data set can be described thus: nuclease protection; Terminator 5'-3' exonuclease, 2 mM MgCl2; partial; text calls it the 24 nt fragment, legend 15_14; EMSA as in Puchta et al. 2010 (buffer not restated), 15 uL, up to 0.8 ug Dmr1p, BSA to constant protein, 0.2 ug tRNA; PNPase protection: 20 mM Tris-HCl pH 8.0. Conditions: protein: recombinant; tags: His6 (pET28a); label: 32P-UTP.

B1: 20_24 (ssRNA)
RNA: GGUUAUAAUAAUAAUAAUAAUAAUAU
As for B1, the binding result (in the data set with Dmr1-His6 [1]; in data set [2]) was “binds” each time.

B2: 15_14 (ssRNA)
RNA: GGAUAAUAAUAAUAAU
Regarding B2, the binding result in data set [3] was “binds”.

B3: N_14 (ssRNA)
RNA: GGUAUAUAUAUAAUAU
With B3, the binding result in data set [3] is on record as “no binding”.

B4: 15_35 (ssRNA)
RNA: GGAAAGAUGAAAUAAUAAUAAUAAUUAUAAGACUAAU
With B4, the binding result in the data set with Dmr1-His6 [4] is given as “binds”.

B5: N_24 (ssRNA)
RNA: GGAAAAGGAUAUAUAUAUAAUAUAUA
B5: the binding result (in data set [3]; in the data set with Dmr1-His6 [5]) was “no binding” throughout.

B6: 15_24 (ssRNA)
RNA: GGAAAUAAUAAUAAUAAUUAUAAGAC
Turning to B6, the binding result in data set [3] is recorded as “binds”.

B7: 15_14 5'-monophosphate (ssRNA)
RNA: GGAUAAUAAUAAUAAU
modifications: 5' monophosphate (polyphosphatase treated)
In the case of B7, in the data set with Dmr1-His6 [6], the binding result was “binds”.

The values above are taken from paper PMC7430664, “Yeast pentatricopeptide protein Dmr1 (Ccm1) binds a repetitive AU-rich motif in the small subunit mitochondrial ribosomal RNA”.
